Test results from article PMC10491434, “SPOP targets the immune transcription factor IRF1 for proteasomal degradation” (eLife, 2023).

Molecular target: T1, wild-type interferon regulatory factor 1 (wtIRF1) (human, UniProt P10914 1-325)
T1 sequence (looked up): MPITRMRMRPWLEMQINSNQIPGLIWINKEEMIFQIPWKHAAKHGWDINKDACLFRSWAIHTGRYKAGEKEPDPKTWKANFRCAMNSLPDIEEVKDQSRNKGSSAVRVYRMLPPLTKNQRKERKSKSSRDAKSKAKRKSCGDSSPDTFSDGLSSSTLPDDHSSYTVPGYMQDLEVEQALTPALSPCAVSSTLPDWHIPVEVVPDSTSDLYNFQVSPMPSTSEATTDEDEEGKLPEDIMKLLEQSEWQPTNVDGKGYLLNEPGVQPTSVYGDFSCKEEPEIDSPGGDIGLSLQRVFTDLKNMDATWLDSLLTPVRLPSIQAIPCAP
Test: cell-based or functional assay

fold decrease in IRF1-driven ISRE luciferase reporter activity in HEK-293T cells with SPOP co-expression (dual luciferase assay): 11 fold
B1: Ollas-tagged wild-type speckle type BTB/POZ protein (wtSPOP) (natural protein, UniProt O43791 1-374, looked up)
chain: MSRVPSPPPPAEMSSGPVAESWCYTQIKVVKFSYMWTINNFSFCREEMGEVIKSSTFSSGANDKLKWCLRVNPKGLDEESKDYLSLYLLLVSCPKSEVRAKFKFSILNAKGEETKAMESQRAYRFVQGKDWGFKKFIRRDFLLDEANGLLPDDKLTLFCEVSVVQDSVNISGQNTMNMVKVPECRLADELGGLWENSRFTDCCLCVAGQEFQAHKAILAARSPVFSAMFEHEMEESKKNRVEINDVEPEVFKEMMCFIYTGKAPNLDKMADDLLAAADKYALERLKVMCEDALCSNLSVENAAEILILADLHSADQLKTQAVDFINYHASDVLETSGWKSMVVSHPHLVAEAYRSLASAQCPFLGPPRKRLKQS
